The results in this text go back to article PMC9728131, “Host acid signal controls Salmonella flagella biogenesis through CadC-YdiV axis”.

One may read the Kd as a measure of binding affinity in units of concentration.

Data set [1] concerns the target T1, CadCc (Escherichia coli K-12 MG1655 (cloning template per Methods; text discusses Salmonella CadC)) (UniProt P23890).
T1 sequence: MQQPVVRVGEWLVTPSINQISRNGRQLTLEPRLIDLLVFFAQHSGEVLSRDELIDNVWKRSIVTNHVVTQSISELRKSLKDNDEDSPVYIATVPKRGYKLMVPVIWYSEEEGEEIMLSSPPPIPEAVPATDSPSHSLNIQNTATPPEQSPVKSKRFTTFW
In words: BLI. Conditions: EMSA: 20 mM Tris-HCl pH 8.0, 100 mM NaCl, 1 mM MgCl2, 1 mM ZnCl2, 4% glycerol, RT 10 min (competition 4 C, 30 min + 30 min); BLI: PBS + 1 mM ZnCl2 (CadCc …). A general note: Mobility shift assays separate free from complexed probe on a gel.

The target of another data set is T2, H-NS (Escherichia coli K-12 MG1655 (cloning …, UniProt P0ACF8 1-137)).
T2 sequence: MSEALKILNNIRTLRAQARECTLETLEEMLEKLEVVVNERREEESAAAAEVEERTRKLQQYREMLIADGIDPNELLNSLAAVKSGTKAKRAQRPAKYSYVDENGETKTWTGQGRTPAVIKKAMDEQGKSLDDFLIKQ
As to the kind of experiment: BLI; PBS without ZnCl2; printed unit umoL; kdis 0.0145/s; EMSA: 20 mM Tris-HCl pH 8.0, 100 mM NaCl, 1 mM MgCl2, 1 mM ZnCl2, 4% glycerol, RT 10 min (competition 4 C, 30 min + 30 min); BLI: PBS + 1 mM ZnCl2 (CadCc, 50 ug/mL) or PBS (H-NS), 25 C; footprinting: 30 C, 30 min. Conditions: protein: recombinant; tags: N-terminal 6xHis (pGL01); chain copies: 2; Methods: 'C-terminus'); blunt. For orientation: In BLI a coated tip is dipped into the sample, and binding shifts an interference pattern.

Consider “TCATCATATATAATGATAT (double strand) [19 nt overlap DNA of ydiV promoter]”, for which, in data set [1], the dissociation constant (Kd) stood at 203 nM.

B1: 19 nt overlap DNA of ydiV promoter (dsDNA)
DNA 1: TCATCATATATAATGATAT
DNA 2: ATATCATTATATATGATGA
As for B1, the Kd with H-NS came out at 533 ± 12.7 nM.
